± gives the standard deviation of the averaged measurements.
What follows are sequences tested on ATP (assay: switch fluorescence ratio, 500 uM ATP over buffer (Cy3 cluster intensity, sum of 5 cycles each) (fold (ratio)); higher = stronger signal-on switching upon ATP binding; sequences stand for … in TCGTCGGCAGCGTCAGATGTGTATAAGAGACAGTTTTTTTTTTTTTTTTTTTTTTTTT…TC). Conditions: aptamer strand: ATP DNA aptamer (quencher-CACCTGGGGGAGTATTGCGGAGGAAGG + anchor), 100 nM annealed; ATP concentration: 500 uM.
Outline: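 Values give the fluorescence ratio for each switch-domain sequence, averaged from per-cluster ratios of summed target-cycle to summed buffer-cycle Cy3 intensity. The Cy3-labelled switching-strand clusters sat on a modified Illumina MiSeq flow-cell, were annealed to 100 nM quencher-labelled ATP aptamer, and were imaged in selection buffer, then after 15 min with 500 uM ATP at 22 °C. Five cycles ran with NaOH stripping and re-annealing between them, and clusters outside 100-1000 RFU were excluded.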
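Note: ATP exposure 15 min at 22 °C before imaging.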

Sequence	switch fluorescence ratio
TTATGGAATT	1.01 ± 0.044
TTTCGATGGT	0.959 ± 0.019
GGCTCAGGTA	1.04 ± 0.013
CCGCGGCGGG	1.04 ± 0.028
TCACTATTTT	1.01 ± 0.02
TGGGGTACGG	1.004 ± 0.0064
AATAATTGGG	0.9967 ± 0.0012
AGGTTTGGAT	0.991 ± 0.078
ACGGGGGGCG	0.984 ± 0.052
GGGTGGCTGG	0.961 ± 0.049
TCAGGGTTAT	1.02 ± 0.0034
TTCGGCAGTG	1.022 ± 0.0079
CTTAACCATT	0.98 ± 0.014
CGTGGGGGTG	0.993 ± 0.029
TTGAGGTTAT	1.02 ± 0.061
CGGAATTGGG	0.9735 ± 0.0085
TGGGTGACGA	1.01 ± 0.024
AAGTTGTTTC	0.988 ± 0.013
TTTAATATGA	0.997 ± 0.035
ACATAATTAG	1.016 ± 0.0095
AGCCGGGGGA	1.05 ± 0.071
GCTAATTTTT	0.996 ± 0.018
GTACTGGATT	0.988 ± 0.035
GGGGATTAGG	0.988 ± 0.015
TGGTAATATA	1.02 ± 0.024

Sequence	switch fluorescence ratio
CATAAGCCTC	1.03 ± 0.056
GCTGGTTGCT	0.994 ± 0.039
CGTGTTGGGT	0.998 ± 0.048
AATGGGGCGG	1.03 ± 0.034
CTTTTTGGAC	0.994 ± 0.071
GGGGGGCTAG	1 ± 0.058
CCTATCCCTG	1.08 ± 0.058
CGGGTCGCTT	0.9738 ± 0.004
AGGAGGGCGT	0.969 ± 0.018
CTGATATGCG	0.997 ± 0.023
AGGGGTGGGT	1.04 ± 0.054
TTACGTAATA	1.34 ± 0.023
TGCAAACCTT	2.39 ± 0.047
CAGTCCTGTA	1 ± 0.042
AGTCTAGTGG	0.985 ± 0.027
GTTACCCAGT	1.049 ± 0.0098
TTGACTAAGG	1.01 ± 0.044
GATAAAATAG	1.17 ± 0.2
TTTATTTTTT	1 ± 0.039
GCCGGTTTTC	1.03 ± 0.044
TCTCGGAAGA	1.01 ± 0.022
TAGCACAGTG	1.15 ± 0.15
AAAGGTAACG	1.001 ± 0.0021
AAAGGGAAAA	1 ± 0.028
TATGATAGGC	0.953 ± 0.058

Sequence	switch fluorescence ratio
CCCATGTATC	1.09 ± 0.011
ATGCAGTATG	0.967 ± 0.025
AGGAGGTATG	0.976 ± 0.027
AATATCCGTA	1.01 ± 0.033
AGACGTGTGT	1.023 ± 0.0088
TCGGGCAACG	1 ± 0.041
GCCACGAGGG	1.025 ± 0.0062
GGGGTTTAGC	0.996 ± 0.015
TCCGGTTGTC	1.11 ± 0.036
CATAGATGTC	0.989 ± 0.063
AGATAGCAGT	1.019 ± 0.0016
TTGGCTTAG	0.999 ± 0.014
TTACGGGGAT	1.04 ± 0.016
AAAGGTCAT	0.9933 ± 0.0018
GAGGCATGGA	0.9864 ± 0.0039
GCGTATTGCT	0.993 ± 0.016
TAGAAGTTGT	1 ± 0.022
GTGGGGGTGT	1.05 ± 0.055
GCTTGGCTAT	0.989 ± 0.022
AGGGTCAAGG	0.971 ± 0.046
TGGAAGTCGG	0.984 ± 0.022
GCCGCTAAGG	0.9968 ± 0.0035
TATATAACGG	1.036 ± 0.01
CGTTCCCGTG	0.9811 ± 0.0031
GTCGAAACAT	1.04 ± 0.075

Sequence	switch fluorescence ratio
GGGGTTATAA	0.998 ± 0.043
GGGGGTCCGT	1 ± 0.025
TCGGAAGATT	1.01 ± 0.034
TTATACATGT	0.973 ± 0.055
TCGGGGGGA	1.03 ± 0.034
ATATATGAAA	0.998 ± 0.024
TTTGTTTTTA	1.02 ± 0.041
GAGGCTAATT	1.03 ± 0.057
ATGGTTGGGT	0.994 ± 0.012
ATGGCGTCCA	0.977 ± 0.045
GGGGATCGTT	1.02 ± 0.021
AAAGCACTTT	1.099 ± 0.0022
ATGGTTCACT	1.023 ± 0.0032
TTAAAATCGA	0.972 ± 0.072
TGGTGAATTT	1.016 ± 0.0067
GACTGGGACT	1.08 ± 0.05
CGGGGCTCCG	0.967 ± 0.023
AAAAGGGGG	0.976 ± 0.018
GCCGGGGAGT	0.989 ± 0.027
TTATGTTTTA	0.9965 ± 0.0046
GGTCATGGGG	0.978 ± 0.023
CCGAAGGGGC	1.52 ± 0.083
CTACAATGGA	1 ± 0.029
GCTGTAAGGC	1.01 ± 0.039
CAGGGAGAGG	1 ± 0.011

From the supplement of paper PMC10126150
